We go through 167 variants from the RNAGym collection of RNA variant scans (doi:10.7554/elife.80360).

B1: HDV Ribozyme (parent)
chain: GGCCGGCAUGGUCCCAGCCUCCUCGCUGGCGCCGGCUGGGCAACAUUCCGAGGGGACCGUCCCCUCGGUAAUGGCGAAUGGGACCCA

In the data set the parent is B1. In words: self-cleavage, relative activity (ratio to wild type); higher = more cleavage; co-transcriptional.
For G28C A77C, the self-cleavage was determined as 0.229.

Turning to G6A G38C, the self-cleavage worked out at 0.

Take U23G C44G: the self-cleavage is 0.277.

On to A77C C85G, for which the self-cleavage is 0.492.

For the variant G53U C63A, the self-cleavage came to 1.2.

Regarding G35A C36A, the self-cleavage turned out to be 0.115.

Consider C19G C30G, for which the self-cleavage is 0.0739.

C14G G40U: the self-cleavage is 0.0594.

For the variant C4U G68C, the self-cleavage turned out to be 0.635.

On to C19U A56U, for which the self-cleavage was 0.0863.

C41G C63U: the self-cleavage is 0.844.

As for C19A G35U, the self-cleavage was 0.115.

Consider A56C G76A, for which the self-cleavage was 1.17.

With C7G C36U, the self-cleavage was 0.0504.

Turning to C21U U65G, the self-cleavage stood at 0.0852.

Take G35U G68U: the self-cleavage is 0.309.

As to U20G G31A, the self-cleavage came to 0.

As to G6C C19G, the self-cleavage worked out at 0.192.

As to A8G G28A, the self-cleavage was found to be 0.166.

In the case of G25C G55U, the self-cleavage came out at 0.089.

As to C26U G52A, the self-cleavage was 1.14.

Regarding C26U G52U, the self-cleavage was found to be 0.956.

For the variant G59A G73A, the self-cleavage came to 0.665.

Take U12G C66A: the self-cleavage was determined as 0.923.

For G68C C85A, the self-cleavage came out at 1.17.

As for G17A C30U, the self-cleavage came out at 0.986.

Regarding A56U G80A, the self-cleavage came to 0.358.

With C15G C57A, the self-cleavage worked out at 0.703.

For the variant C4G G25U, the self-cleavage amounted to 0.109.

C7U C75G: the self-cleavage was determined as 0.0852.

In the case of G55A G68A, the self-cleavage worked out at 0.831.

In the case of G1U A8G, the self-cleavage was 0.426.

For the variant A43U C48G, the self-cleavage was determined as 0.435.

Take G50A G80U: the self-cleavage came to 0.233.

For the variant G28A A83C, the self-cleavage turned out to be 0.0875.

As to C26A G40U, the self-cleavage is 0.946.

Turning to G5U C33G, the self-cleavage worked out at 0.65.

Turning to G2C C22U, the self-cleavage is 0.0567.

For the variant G6A U23A, the self-cleavage was 0.569.

With C26A G54U, the self-cleavage turned out to be 1.03.

In the case of G11U C57G, the self-cleavage was determined as 0.358.

In the case of G34C C36G, the self-cleavage was found to be 0.095.

For C48U C84U, the self-cleavage was found to be 0.742.

For C64G G76U, the self-cleavage worked out at 1.05.

G11C U65C: the self-cleavage turned out to be 0.297.

Regarding G5A C49U, the self-cleavage was found to be 0.18.

Take C21A A56U: the self-cleavage was 0.108.

Take C18G C41G: the self-cleavage came to 0.266.

With C26G C61G, the self-cleavage is 0.811.

Turning to U37A C86G, the self-cleavage was found to be 0.0875.

As to U27A C62G, the self-cleavage is 0.929.

As for G11A U27C, the self-cleavage stood at 0.447.

As for G52C G80C, the self-cleavage came out at 0.326.

Consider C3G G17C, for which the self-cleavage worked out at 0.0941.

A56G A78C: the self-cleavage turned out to be 0.203.

Turning to C14G U65C, the self-cleavage worked out at 0.8.

For C18G U60C, the self-cleavage came to 0.0692.

Turning to G35A A56G, the self-cleavage was 0.769.

For G38C C75U, the self-cleavage is 0.0297.

G35A G40A: the self-cleavage is 0.346.

For A43C U65G, the self-cleavage came out at 0.453.

Turning to G29A C61U, the self-cleavage is 0.274.

With C19A C84U, the self-cleavage came to 0.0804.

Turning to G31U A78C, the self-cleavage worked out at 0.0297.

For A16U A87G, the self-cleavage turned out to be 0.968.

For the variant G2A C4A, the self-cleavage is 0.0615.

With G10A G76C, the self-cleavage came to 0.772.

As to G5C C62U, the self-cleavage is 0.222.

Consider C33A A70C, for which the self-cleavage is 0.17.

On to G2A G35C, for which the self-cleavage worked out at 0.0326.

With G59U A78G, the self-cleavage was 0.904.

Consider U12G U46A, for which the self-cleavage was found to be 0.332.

For the variant U65C G73A, the self-cleavage came out at 0.746.

C4G G82C: the self-cleavage amounted to 0.

For C15U G29U, the self-cleavage was determined as 0.0594.

As for U69A A77G, the self-cleavage was determined as 0.72.

For G76C C85G, the self-cleavage was determined as 1.23.

Regarding C18U C32G, the self-cleavage was 0.032.

For the variant A56G C57A, the self-cleavage turned out to be 0.847.

For the variant U27A G38C, the self-cleavage turned out to be 0.0665.

With A45U A56C, the self-cleavage amounted to 0.806.

As to A77U A83C, the self-cleavage was found to be 0.231.

Take A43U A71G: the self-cleavage is 0.405.

With G1U A83U, the self-cleavage was 0.358.

On to U12A C32A, for which the self-cleavage amounted to 0.131.

On to C33G G68C, for which the self-cleavage turned out to be 0.0875.

As to U20A G39C, the self-cleavage is 0.185.

Regarding C33G C58A, the self-cleavage is 0.369.

With C21G C41U, the self-cleavage was found to be 0.0941.

Regarding G31C U69C, the self-cleavage was determined as 0.534.

For C48U A77U, the self-cleavage worked out at 0.356.

On to C19A U20A, for which the self-cleavage came out at 0.0234.

As for C41G U72C, the self-cleavage is 0.201.

As for C62G C86U, the self-cleavage was 0.923.

For G2U G81C, the self-cleavage amounted to 0.0779.

For C44G C86U, the self-cleavage was 0.897.

Turning to C4G C36G, the self-cleavage worked out at 0.0268.

Consider C18A C66G, for which the self-cleavage was 0.0639.

On to G52A C63A, for which the self-cleavage stood at 0.774.

For U12A G81A, the self-cleavage amounted to 0.0554.

As to C19U G54A, the self-cleavage was found to be 0.179.

With G1U, the self-cleavage amounted to 0.391.

Consider C26G G31A, for which the self-cleavage worked out at 0.744.

Take C33G C66G: the self-cleavage turned out to be 0.122.

For the variant G11U C58G, the self-cleavage turned out to be 0.44.

Regarding C24G G52A, the self-cleavage worked out at 0.123.

G2C U79A: the self-cleavage worked out at 0.133.

In the case of G17A U72C, the self-cleavage was 0.141.

U47C C48G: the self-cleavage stood at 0.804.

Take C85U: the self-cleavage came to 0.978.

For C85A, the self-cleavage was 0.932.

In the case of G1C G39A, the self-cleavage was found to be 0.203.

Take U12A U37G: the self-cleavage stood at 0.0536.

Turning to C7U A42G, the self-cleavage is 0.415.

Turning to U12C C30U, the self-cleavage is 0.156.

As to A8C G54U, the self-cleavage is 0.618.

Take C32U U47A: the self-cleavage worked out at 0.943.

C13A C14G: the self-cleavage was determined as 0.0978.

For G10C G17A, the self-cleavage amounted to 0.804.

Take C19A C48A: the self-cleavage was determined as 0.0934.

With U12G C32U, the self-cleavage was 0.399.

With A43U G54A, the self-cleavage amounted to 0.487.

Take C62G C75U: the self-cleavage amounted to 0.189.

Regarding U9A C19G, the self-cleavage was determined as 0.0665.

For the variant C49A C57G, the self-cleavage was determined as 0.898.

On to C21G G82U, for which the self-cleavage came out at 0.106.

In the case of G28C C41G, the self-cleavage is 0.

G31C G82U: the self-cleavage worked out at 0.128.

C21A U65A: the self-cleavage stood at 0.0405.

For C36U G76A, the self-cleavage was 0.697.

As to G68A U69G, the self-cleavage is 0.917.

On to A8U G31U, for which the self-cleavage amounted to 0.0475.

Consider G17A U20G, for which the self-cleavage stood at 0.156.

As to C44G C64A, the self-cleavage worked out at 0.745.

Consider C75U C84U, for which the self-cleavage was found to be 0.0767.

Turning to G53A A78C, the self-cleavage stood at 0.104.

With G28U G82C, the self-cleavage amounted to 0.0272.

On to A16U U72A, for which the self-cleavage came out at 0.554.

Regarding C18A C26G, the self-cleavage was found to be 0.119.

Regarding A16U U79G, the self-cleavage is 1.13.

As to G29A C66G, the self-cleavage worked out at 0.204.

Take G31U G80C: the self-cleavage was determined as 0.0449.

In the case of C18U U65A, the self-cleavage was determined as 0.635.

Turning to C86A, the self-cleavage stood at 0.926.

A8U G74U: the self-cleavage stood at 0.173.

On to C24A G50C, for which the self-cleavage worked out at 0.855.

On to C57U C61A, for which the self-cleavage amounted to 1.32.

For the variant A43U C57U, the self-cleavage was 0.631.

C21G G31C: the self-cleavage turned out to be 0.147.

With U12G C49A, the self-cleavage is 0.935.

Consider C19U C24G, for which the self-cleavage was 0.0475.

Consider G50A C84A, for which the self-cleavage turned out to be 0.95.

C24A G82A: the self-cleavage turned out to be 0.223.

With C22G G31C, the self-cleavage was determined as 0.0852.

As for U69G G82U, the self-cleavage was 0.208.

C13A C26G: the self-cleavage worked out at 0.657.

Take C13G G82U: the self-cleavage was 0.0361.

Consider A56U C61A, for which the self-cleavage worked out at 0.943.

Regarding C4U G25U, the self-cleavage was 0.0287.

As to C21G C84U, the self-cleavage was found to be 0.0231.

Take G17U G82C: the self-cleavage came to 0.269.

Regarding C14A A56U, the self-cleavage turned out to be 0.688.

On to G6C C14U, for which the self-cleavage is 0.453.

For G31C A45U, the self-cleavage is 0.0437.

With G1U G82C, the self-cleavage was found to be 0.47.

G50U: the self-cleavage was 0.989.

For the variant C4A G6U, the self-cleavage turned out to be 0.0791.
